In patent US11999805B1, “Peptide inhibitors of CRISPR-Cas9” (priority 2020, dated 2024):
Entries after “also recorded” stand apart in the source; their conditions may differ. Where two headings read alike, the source gives them in different places.

Key:
SpyCas9 [1] = target: T1, SpyCas9 (Streptococcus pyogenes serotype M1, UniProt Q99ZW2); type: biochemical, S. pyogenes
Experimental: To determine whether synthetic peptides would inhibit Cas9 cleavage activity, 200 peptide sequences were selected for chemical synthesis based on the following criteria: (1) peptides enriched after independent panning on RNP immobilized on both the Monomeric Avidin and NeutrAvidin columns, (2) Higher Boman index (>2.3), the computed potential protein-protein interaction for a given amino-acids sequence (3) a predicted instability index below 50. Theses peptides were screened at 200 μM for inhibition of Cas9 cleavage activity using the recently developed HT FRET-based assay using a dual-quencher substrate with low background and high sensitivity. See Seamon K J, Light Y K, Saada E A, Schoeniger J S, Harmon B. 2018. Versatile High-Throughput Fluorescence Assay for Monitoring Cas9 Activity. Analytical Chemistry 90:6913-6921. This assay specifically measures DNA substrate cleavage, and is able to differentiate between cleavage of a single strand of DNA and cleavage of both DNA strands.
Reactions (10 μL tubes) were set up in Cas9 reaction buffer (20 mM Tris-HCl, pH 7.5, 100 mM NaCl, 5 mM MgCl2, 0.1 mM EDTA) containing 50 nM annealed DNA substrate, 1.5 μM sgRNA, and 500 nM Cas9 in the wells of a black low volume 384-well plate. The reactions were incubated for 1 hour at ambient temperature; then, 10 μL of 8 M Gdn-HCl was added to quench the reaction before the plates were covered with an aluminum seal and incubated at 80° C. for 10 minutes. The fluorescence was read in a Tecan Infinite M1000 or SPARK plate spectrofluorometer (Tecan).
The peptides were diluted 2-fold from 200 to 12.5 μM and incubated for 1 hour with 500 nM SpyCas9, gRNA prior to addition of 50 nM FRET DNA substrate for 1 hour. […] Data are the average ±SD of three replicate wells.
(§1) For the 11 original peptides reactions (10 μL) were set up in Cas9 reaction buffer [20 mM Tris-HCl, pH 7.5, 100 mM NaCl, 5 mM MgCl2, 0.1 mM EDTA] containing 50 nM annealed DNA substrate, 1.5 μM sgRNA, and 0.5 μM Cas9 in the wells of a black low volume 384-well plate. The reactions were incubated for 1 hour at ambient temperature with the indicated concentration of peptide; then, 10 μL, of 8 M Guanidine-HCl was added to quench the reaction. The plates were covered with an aluminum seal and incubated at 75° C. for 10 minutes and cooled down to RT before reading.
(§2) The % inhibition was determined by subtracting normalized relative fluorescent value to Cas9 without peptides (% activity) from 100% cleavage activity of CjeCas9, SauCas9, SpyCas9 by FRET assay. Data are the average ±SD of eleven replicate wells from three technical replicates at the indicated concentration of peptides.
(§3) FIGS. 12A, 12B, and 12C show graphs of measurements and fitted curves of concentration dependent inhibition of mutated peptides against Cas9 variants. The inhibition was measured as relative fluorescent value to Cas9 without peptides (% activity) of CjeCas9 (line with squares), SauCas9 (line with diamonds), SpyCas9 (line with triangles) by FRET assay with the indicated concentration of peptides and compared to original peptides (line with circles). Data are the average ±SD of eleven replicate wells from three technical replicates.

SauCas9 = target: T2, SauCas9 (Staphylococcus aureus, UniProt J7RUA5); experiment: HT FRET-based Cas9 cleavage activity assay, SauCas9; type: biochemical, S. aureus
T2 construct: made in house; host or cells: E. coli BL21(star)DE3
T2 sequence (J7RUA5 whole entry, looked up): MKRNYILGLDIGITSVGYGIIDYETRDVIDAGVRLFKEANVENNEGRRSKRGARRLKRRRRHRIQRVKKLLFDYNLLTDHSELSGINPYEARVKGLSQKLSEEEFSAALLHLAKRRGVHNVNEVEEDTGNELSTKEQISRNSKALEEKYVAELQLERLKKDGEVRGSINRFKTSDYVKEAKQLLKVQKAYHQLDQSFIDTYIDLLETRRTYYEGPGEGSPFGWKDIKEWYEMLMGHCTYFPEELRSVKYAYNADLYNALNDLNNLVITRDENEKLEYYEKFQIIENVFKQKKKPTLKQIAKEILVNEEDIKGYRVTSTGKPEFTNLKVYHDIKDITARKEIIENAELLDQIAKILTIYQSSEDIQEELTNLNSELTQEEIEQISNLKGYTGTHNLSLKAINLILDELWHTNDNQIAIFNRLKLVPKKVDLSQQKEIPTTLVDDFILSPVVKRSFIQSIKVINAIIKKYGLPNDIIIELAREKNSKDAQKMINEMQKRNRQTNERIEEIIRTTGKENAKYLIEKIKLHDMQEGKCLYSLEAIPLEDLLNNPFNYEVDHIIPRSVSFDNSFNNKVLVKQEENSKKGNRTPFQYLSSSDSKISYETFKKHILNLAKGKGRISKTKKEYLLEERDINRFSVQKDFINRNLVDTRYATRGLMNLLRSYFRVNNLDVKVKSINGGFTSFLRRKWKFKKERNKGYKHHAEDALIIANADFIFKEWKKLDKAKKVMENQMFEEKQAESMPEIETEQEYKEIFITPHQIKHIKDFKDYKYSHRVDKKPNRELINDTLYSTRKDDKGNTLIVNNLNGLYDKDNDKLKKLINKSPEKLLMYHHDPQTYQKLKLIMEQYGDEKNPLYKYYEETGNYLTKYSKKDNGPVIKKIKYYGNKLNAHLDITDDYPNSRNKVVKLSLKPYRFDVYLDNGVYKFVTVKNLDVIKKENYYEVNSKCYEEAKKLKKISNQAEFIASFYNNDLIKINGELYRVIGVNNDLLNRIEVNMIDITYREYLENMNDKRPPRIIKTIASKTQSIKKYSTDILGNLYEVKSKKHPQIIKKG
Experimental: To evaluate the ability of identified peptides to inhibit other Cas9 variants, SauCas9 and CjeCas9 cleavage assays were used to quantitatively measure changes in activity. […] The inhibition was measured as relative fluorescent value to Cas9 without peptides (% activity) of CjeCas9 (Top), SauCas9 (middle), SpyCas9 (bottom) by FRET assay with the indicated concentration of peptides. Data are the average ±SD of eleven replicate wells from three technical replicates.
as §1, §2, §3

SpyCas9 [2] = target: T1, SpyCas9; experiment: Beacon DNA binding assay (Cas9 RNP binding to DNA substrate); parameters: species or system S. pyogenes
Experimental: To determine the mechanism of action of these peptide inhibitors, a binding assay was performed to determine if inhibitors are blocking Cas9 RNP binding to the DNA substrate. The beacon DNA binding assay was adapted and performed as described in Mekler V, Minakhin L, Semenova E, Kuznedelov K, Severinov K. 2016. Kinetics of the CRISPR-Cas9 effector complex assembly and the role of 3′-terminal segment of guide RNA. Nucleic Acids Res 44:2837-45. DNA probes were prepared from unmodified and chromophore-labeled DNA oligonucleotides synthesized by Integrated DNA Technologies. Equimolar amounts of synthetic complementary strands were mixed in a buffer containing 40 mM Tris, pH 7.9, 100 mM NaCl; heated for 2 min at 90° C. and slowly cooled to 20° C. The PAM-distal ends of the beacon target and non-target strands were labeled with fluorescein and Iowa Black® FQ, respectively. Both beacons mimic native target DNA and bind Cas9/sgRNA. The fluorescent signal is increased when Cas9 binds the DNA substrate and a helix forms with the target substrate strand and gRNA resulting in dissociation of oligo 3, leading to increase in fluorescent signal.
Data are the average ±SD of three replicate wells.

T1 sequence (Q99ZW2 whole entry): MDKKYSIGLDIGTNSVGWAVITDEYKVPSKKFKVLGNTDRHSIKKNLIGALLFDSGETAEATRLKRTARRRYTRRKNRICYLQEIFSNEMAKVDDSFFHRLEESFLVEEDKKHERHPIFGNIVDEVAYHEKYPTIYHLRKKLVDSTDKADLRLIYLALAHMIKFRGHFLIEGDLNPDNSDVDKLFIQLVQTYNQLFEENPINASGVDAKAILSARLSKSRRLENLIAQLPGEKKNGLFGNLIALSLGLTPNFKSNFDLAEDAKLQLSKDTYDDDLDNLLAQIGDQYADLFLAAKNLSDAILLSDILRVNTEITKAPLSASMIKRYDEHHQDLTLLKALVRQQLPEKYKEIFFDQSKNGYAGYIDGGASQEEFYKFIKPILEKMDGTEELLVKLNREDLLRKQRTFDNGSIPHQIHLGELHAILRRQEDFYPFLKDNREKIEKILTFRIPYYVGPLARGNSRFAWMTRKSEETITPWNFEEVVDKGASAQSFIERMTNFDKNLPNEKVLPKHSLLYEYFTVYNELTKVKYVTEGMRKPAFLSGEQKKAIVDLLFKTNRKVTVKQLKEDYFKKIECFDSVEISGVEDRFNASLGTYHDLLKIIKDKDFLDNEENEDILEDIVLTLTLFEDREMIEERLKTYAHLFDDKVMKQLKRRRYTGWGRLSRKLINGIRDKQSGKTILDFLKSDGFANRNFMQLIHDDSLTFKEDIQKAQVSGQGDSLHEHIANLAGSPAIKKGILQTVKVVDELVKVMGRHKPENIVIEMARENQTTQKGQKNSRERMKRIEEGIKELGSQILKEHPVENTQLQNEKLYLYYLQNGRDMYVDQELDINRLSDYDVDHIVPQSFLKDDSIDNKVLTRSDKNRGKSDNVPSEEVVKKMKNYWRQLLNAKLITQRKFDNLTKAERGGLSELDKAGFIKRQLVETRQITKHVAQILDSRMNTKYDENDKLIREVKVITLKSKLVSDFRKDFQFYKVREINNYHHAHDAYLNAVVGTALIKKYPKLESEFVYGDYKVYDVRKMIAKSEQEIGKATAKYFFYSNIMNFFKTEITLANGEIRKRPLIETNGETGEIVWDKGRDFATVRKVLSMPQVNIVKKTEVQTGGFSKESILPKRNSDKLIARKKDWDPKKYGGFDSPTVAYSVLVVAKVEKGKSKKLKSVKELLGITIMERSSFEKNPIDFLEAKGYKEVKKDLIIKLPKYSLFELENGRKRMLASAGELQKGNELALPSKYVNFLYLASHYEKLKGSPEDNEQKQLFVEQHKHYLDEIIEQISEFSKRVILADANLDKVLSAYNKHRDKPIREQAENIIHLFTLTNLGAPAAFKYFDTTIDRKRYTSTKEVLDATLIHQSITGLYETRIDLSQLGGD

VYDFYRMLSHFFLKGPSR [Peptide 91]
activity of SpyCas9 (% activity, FRET) (SpyCas9 [1]; peptide 100 μM): significantly reduced activity
activity of SpyCas9 (% activity, FRET) (SpyCas9 [1]; peptide 200 μM): significantly reduced activity
activity of SauCas9 (% activity, FRET) (SauCas9; peptide 100 μM): significantly reduced activity
activity of SauCas9 (% activity, FRET) (SauCas9; peptide 200 μM): significantly reduced activity; also recorded: reduced SauCas9 activity
mechanism subset: blocks Cas9 RNP binding to target DNA or other mechanism (SpyCas9 [2]): block Cas9 RNP binding to the target DNA
binding of SpyCas9 RNP to DNA substrate (beacon fluorescence) (SpyCas9 [2]; peptide 40 μM, SpyCas9 500 nM, DNA substrate 50 nM): unaltered; also recorded: did not reduce substrate binding
